Experiment: yeast display, Sf9 membrane polyspecificity reagent, FACS + sequencing; frameworks hold sequencing errors
Summary of the method: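 Using colony PCR, genes from sorted yeast display clones were amplified, then sequenced on MiSeq at 2 × 250 and filtered by CDR length. The clones had been stained with 10% biotinylated, detergent-solubilized Sf9 membrane reagent for 1 hour at 4 °C and sorted by FACS into low and high (top ~1%) gates on anti-HA and streptavidin fluorescence. Polyreactivity labels come from the gate of origin.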

QVHLVESGGGLVQAGGSLRLSCAASGRIFTYKAMGWYRQAPGKERELVAAITYRRSSTYYADSVKGRFTISRDNAKNTVYLQMNSLKTEDTAVYYCAAVFSGFYYAYDYWGQGTQVTVSS
polyreactivity (PSR sort gate): high polyreactivity

QLQLVDSGGGLVKAGGSLRLSCAASGRTFYRYAMGWYRKAPGKERELVAAINFSTGSTYYADSVKGRFTISRDNAKNTVYLQMNSLKPEDTAVYYCAVPYGSYVGYDYWGQGTQVTVSS
polyreactivity (PSR sort gate): low polyreactivity

HVQLQESGGGLVQAGGSLRQSCAASGYIFPYYSMGLYRQAPGKERGLVACIAAGTTTNYADSVKGRFTISRDNAKNTVYLQMNSLKPEDAAVYYCAALNAFNTGHWYWGQGTQVTVSS
polyreactivity (PSR sort gate): low polyreactivity

QDQLVESGGGLVQAGGSLRLSCAASGSIFTSNAMGWYRQAPGKERELVAVITGSTGRTHYADSVKGRFTISRDNAKNTVYLQMNSLKPEDTAVYYCAAGLTFVTNFDYWGQGTQVTVSS
polyreactivity (PSR sort gate): low polyreactivity

QVQLVESGGGLVQAGGSLRLSCAASGSIFVGNVMGWYRQAPGKERELVAAISRTGGTYYADSVKGRFTISRDNAKNTVYLQMNSLKPEDTAVYYCNKVSLRQSRMYYWGQGTQVTVSS
polyreactivity (PSR sort gate): high polyreactivity

QDQLVDSGGGLVQAGGSLRLSCAASGSTFGYYVMGWYRQAPGKERELVAAISDSDGSTYYADSVKGRFTISRDNAKNTVYLQMYSLKPEDTAVYYCATGPHQPPYSYLDYDYWGQGTQVTVSS
polyreactivity (PSR sort gate): low polyreactivity

QVQLVESGGGLVQAGGSLRLSCAASGRNLRWYAMGWYRPAPGKERELVAAISTRSGSTYYADSVKGRFTISRDNAKNTVYLQMNSLKPEDTAVYYCAAQFWVKGQPQYGYLGQGTQVTVSS
polyreactivity (PSR sort gate): high polyreactivity

QVQLVESGGGLVQAGGSLRLICAASGSIFNGYVMGWYRQAPGKERELVASINRGGTTNYADSVKGRFTISRDNAKNTVYLLMNSLKPEETAVYYCAVDDDANSLGGYYVLFDYWGQGTQVTVSS
polyreactivity (PSR sort gate): low polyreactivity

QVQLVESGGGLVQAGGSLRLSCAASGRTFWRYAMGWYRQAPWKERELVARISWRGGSTNYADSVKGRFTISRDNAKNTVYLQMNSLKPEDTAVYYFNAEVLNYLVFGYQLGYDYWGQGTQVTVSS
polyreactivity (PSR sort gate): low polyreactivity

QVQLVESGGGLVQAGGSLRLSCAASGSTFYEKAMGWYRQAPGKEREFVAAITQSGGSTYYADSVKGRFTISRDNAKNTVYLQMNSLKPEDTAVYYCAKVWPKHYRSLGYGYWGQGTQVTVSS
polyreactivity (PSR sort gate): low polyreactivity

QVQLVESGGGLVQAGGSLRLSCAASGITFETYAMGWYRQAPGKERELVAAITYSGGRTYYADSVKGRFTISRDNAKNTVYLQMNSLKPEDTAVYYCNARKYVGFWSRYDYWGQGTQVTVSS
polyreactivity (PSR sort gate): high polyreactivity

QVQLVESGGGLVQAGGSLRLSCAASGSIFADYVMGWYRRAPGKERELVAAITRRGRTYYADSVKGRFTISRDNAKNTVYLQMNSLKPEDTAVYYCAKVASGKIDSWGQGTQVTVSS
polyreactivity (PSR sort gate): low polyreactivity

QVQLVESGVGLVQAGGSLRLSCAASGTTFSQYAMGGYRQAPGKERELVAAIDWSGGSTYYADSVKGRFTISRDNAKNTVYLQMNSLKPVDTAVYYCNTLRFRSFYLYGYWGQGTQVTVSS
polyreactivity (PSR sort gate): high polyreactivity

QVQLVESGGGLVQAGGSLRLSCAASGYTFEFNVMGWYRQAPGKERELVASIRWGSTSYADSVKGRFTISRDNAKNTVYLQMNSLKPEDTAVYYCAAVTYDYWGQGTQVTVSS
polyreactivity (PSR sort gate): low polyreactivity

QVQLVESGGGLVQAGGSLRLSCAASGRIFDHNAMGWYRPAPGKERELVAAIDWSGGSTYYADSVKGRFTISRDNAKNTVYLQMNSLKPEDTAVYYCNVYWHTFSWDDYGYWGQGTQVTVSS
polyreactivity (PSR sort gate): low polyreactivity

QVQLVESGGGLVQAGGSLRLSCAASGFTFTYYAMGWYRQAPGKERELVAVISSAGSTYNADSVKGRFTISRDNAKNTVYLQMNSLKPEDTAVYYCNAVGRYYSSGRYGHWGQGTQVTVSS
polyreactivity (PSR sort gate): high polyreactivity

QVQLVESGGGLVQAGGSLRLSCAASGFIFEGNAMGWYRPAPGKERELVAAISWSGGRTFYADSVKGRFTISRDNAKNTVYLQMNSLKPEDTAVYYCNALPGRRRWQVDYWGQGTQVTVSS
polyreactivity (PSR sort gate): high polyreactivity

QVQLVESGGGLVQAGGSLRLSCAASGSTFYLNAMGWYRPAPGKERELVAAISSGGRTYYADSVKGRFTISRDNAKNTVYLQMISLKPEDTGVYYCNAVRYLRGAYNYWGQGTQVTVSS
polyreactivity (PSR sort gate): high polyreactivity

QVQLVESGGGLVQAGGSLRLSCAASGRTLVYYAMGWYRQAPGKERELVAAITSVGSTNYADSVKGRFTISRDNAKNTVYLQMNSLKPEDTAVYYCAADRTYRFYYTQGYEYWGQGTQVTVSS
polyreactivity (PSR sort gate): low polyreactivity

QVQLVESGGGLVQAGGSLRLSCAASGRTSSSNAMGWYRQAPGKERELVATISRTGSTYYADSVKGRFTISRDNAKNTVYLQMNSLKPEDTSVYYCNRYFSEALLHGSCYNRYYYWGQGTQVTVSS
polyreactivity (PSR sort gate): low polyreactivity

QVQIVESGGGLVQAGGSLRLICAASGFTFTYNAMGWYRQAPWKERELVADIDSDGSTTYADSVKGRFTISRDNAKNTVYLQMNSLKPEDTAVYYCAADYWDYSVWRWYEYWGQGTQVTVSS
polyreactivity (PSR sort gate): high polyreactivity

QVQLVESGGGLVQAGGSLRLSCAASGSTYGWNAMGWSRQAPGKERELVAAISSSGGITYYADSVKGRFTISRDNAKNTVYLQMNSLKPEDTAVYYCAAERDVDWVNYWGQGTQVTVSS
polyreactivity (PSR sort gate): low polyreactivity

QVQLVESGGGLVQAGGSLRLSCAASGRTFVKNAMGWYRQAPGKERELVAISWSTGGTYYADSVKGRFTISRDNAKNTVYLQMNSLKPEDTAVYYCNADWGSVNGYSGYYYWGQGTQVTVSS
polyreactivity (PSR sort gate): low polyreactivity

QVQLQESGGGLVQAGGSLRLSCAASGTITQEDWMGWYRQAPGKEREFVAAIGLGSNTNYADSLKGRFTISRDNAKNTVYLQMNSLKPEDTGVYYCAVSVWQYSDHVYRGQGTQVTVSS
polyreactivity (PSR sort gate): low polyreactivity

QVQLVESGGGLVQAGGSLRLSCAASGRTFSYNAMGWYRQAPGKEWELVAAISWGGGSTYYADSVKGRFTISRDNAKNTVYLQMNSLKPEDTAVYYCAAKRLTSRQHDYWGQGTQVTVSS
polyreactivity (PSR sort gate): high polyreactivity

QVQLVESGGGLVQAGGSLRLSCAASGRIFSFSAMGWYRQAPGKERELVAAISYSGGRTYYADSGKGRFTISRDNAKNTVYLQMNSLKPDDTAVYDCNAGRVLRLAYNYWGQGTQVTVSS
polyreactivity (PSR sort gate): low polyreactivity

QVQLVESGGGLVQAGGSLRLSCAASGRTIYRYAMGWYRQAPGKERELVAAITRRGVNTYYADSVKGRFTISRDNAKNTVYLQMNSLKPEDTAVYYCAAENGALVTYGYWGQGTQVTVSS
polyreactivity (PSR sort gate): high polyreactivity

QVQLVESGGGLVQAGGSLRLSSAASGSIFETYAMGWSRQAPGKERELVAAITQSGGSTYYADSVKGRFTISRDNAKNTVYLQMNSLKPEDTAVYYCAADLVVWWKWGYEYWGQGTQVTVSS
polyreactivity (PSR sort gate): low polyreactivity

QVQLVESGGGLVQAGGSLRLSCAASGRIFLPYAMGWYRQAPGKERELVAGISSGGSTKYADSVKGRFTISRDNAKNTVYLQMNSLKPEDTAVYYCNRRFPIYGSRFGYYYWGQGTQVTVSS
polyreactivity (PSR sort gate): high polyreactivity

QVQLVESGGGLVQAGGSLRLSCAASGITFYRYGMGWYRQAPGKERELVAAITSRGGSTSYADSVKGRFTISRDNAKNTVYLQMNSLKPEDTAVYYCAAFYRRDYDYWGQGTQVTVSS
polyreactivity (PSR sort gate): high polyreactivity

QVQLVESRGGLVQAGGSLRLSCAASGRTFWYYAMGWYRQAPGKEMELVATITGSGGTTYYADSVKGRFTISRDNAKNTVYLQMNSLKREDTAVYYCAKEQHWYIYGPAEVDYWGQGTQVTVSS
polyreactivity (PSR sort gate): high polyreactivity

QVLLVESGGGLVQAGGSLRLSCAASGFIFRPNAMGWYRQAPGKERELVARITYRGGSTYYADSVKGRFTISRDNAKKTVYLKMNSLKPEDTAVYYCAARAVTYAGYTYNYWGQGTQVTVSS
polyreactivity (PSR sort gate): high polyreactivity

QVQLVESVGGLVQAGGSLRLSCAASGSILWLYAMGWYRQAPGKERELVAAISGSGRTNYADSEKGLFTISRDNAKNTVYLQMNSQKPEDTAVYYCARVHGTSESKYYYWGQGTQVTVSL
polyreactivity (PSR sort gate): low polyreactivity

QVQLVESGGGLVQEGGSLRLTCAASGSTFSDYAMGWYRQAPGKERELVAAISKRGGRTYYADSVKGRFTISRDNEKNTVYLQMNSLKPEDTAVYDCAADLPNAKWYGYDYWGQGTQVTVSS
polyreactivity (PSR sort gate): high polyreactivity

QVQLVESGGGLFQAGGSLRLSCAASGSPFSSYAIGWYRQAPGKERELVAAISYRGTRTRYADSVKGRFTISRDNAKNTVYLQMNSLKPEDTAVYDCAADRTFYGIRFDYWGQGTQVTVSS
polyreactivity (PSR sort gate): low polyreactivity

QVQLVESRGGLVQAGGSLRLSCAASGRNFKANTMGWYRQAPGKERVVVAAITASGGTTYYADSVKGRFTISRDNAKNTVYLQMTSLKPEDTAVYYCAAAVWYRGWYRYEYWGQGSQVTVSS
polyreactivity (PSR sort gate): low polyreactivity

QDQLGESGGGLVQAGGSLRLSCAASGSTFTWYAMGWYRQAPGKERELVAAISRGGSTNYADSVKGRFTISRDNAKNTVYLQMNSLKPEDTAVYYFAAESYWRDDYWGQGTQVTLSS
polyreactivity (PSR sort gate): low polyreactivity

QVQLVESGGGLVQAGGSLRLSCAASGRIFLGYAMGWYRQAPGKERELVATITWNSDGTYYADSVKGRFTISRDNAKNTVYLQMNSLKPEDTAVYYCATDEGWPWYYYWGQGTQVTVSS
polyreactivity (PSR sort gate): low polyreactivity

QVQLVESGGGLVQAGGSLRLSCAGSGFISYYYAMGWYRQAPGKEREFVAAITSSGGSTRYADSVKGRFTISRDNAKNTVYLQMNSLKPEDTAVYYCNADYYWFFDFFDYDYWGQGTQVTVSS
polyreactivity (PSR sort gate): low polyreactivity

QVQLVESGGGLVQAGGSLRLSCAASGSIFSYYAMGWYRQAPGKERELVAAIDRSGVSTYYADSVKGRFTISRDNAKNTVYLQMNSLKPEDTAVYYCNTDHRNICFRFKYDYWGQGTQVTVSS
polyreactivity (PSR sort gate): high polyreactivity

QVQLVESGGGLVQAGGSLRLSCAASGRTFYIYAMGWYRQAPGKERELVAAINSGGSTYYADSVKGRFTISRDNAKNTVYLQMNSLKPEDTAVYYCAATKGYYFFGDRDYWGQGTQVTVSS
polyreactivity (PSR sort gate): low polyreactivity

QVQLVESGGGLVQAGGSLRLSCAASGIIFQSYTMGWYRQAPGKVRELVAAIDSGGSTYYADSVKGRFTISRDNAKNTVYLQMNSLKPEDTAVYYCAAEPDTYWYTYDYWGQGTQVTVSS
polyreactivity (PSR sort gate): low polyreactivity

QVQLVESGGGLVQAGGSLRLSCAASGSTFNDNAMGWYRQAPGKERELVAGISYSGGSTYYADSVKGRFTISRDHAKNTVYLQMNSLKPEDTAVYYCNADVTGLSQFGYWGQGTQVTVSS
polyreactivity (PSR sort gate): low polyreactivity

Source: the nanobody polyreactivity screen of Harvey et al. (2022)
